Measured values published in the DeepSol protein solubility set.

Assay: soluble on expression in E. coli; label from the status in PepcDB or PDB records

Row | Sequence | soluble on expression in E. coli
1 | RGRGPEAAAQEEAEEVGRSGPGRRAAQRRSPGLAMLLASAVVVWEWLNEHGRWRPYSPAVSHHIEAVVRAGPRAGGSVVLGQVDSRLAPYIIDLQSMNQFRQDTGTLRPVRRNYYDPSSAPGKGVVWEWENDNGSWTPYDMEVGITIQHAYEKQHPWIDLTSIGFSYVIDFNTMGQINRQTQRQRRVRRRLDLIYPMVTGTLPKAQSWPVSPGPATSPPMSPCSCPQCVLVMSVKAAVVNGSTGPLQLPVTRKNMPPPGVVKLPPLPGSGAKPLDSTGTIRGPLKTAPSQVIRRQASSMPTGTTMGSPASPPGPNSKTGRVALATLNRTNLQRLAIAQSRVLIASGVPTVPVKNLNGSSPVNPALAGITGILMSAAGLPVCLTRPPKLVLHPPPVSKSEIKSIPGVSNTSRKTTKKQAKKGKTPEEVLKKYLQKVRHPPDEDCTICMERLTAPSGYKGPQPTVKPDLVGKLSRCGHVYHIYCLVAMYNNGNKDGSLQCPTCKTIYGVKTGTQPPGKMEYHLIPHSLPGHPDCKTIRIIYSIPPGIQGPEHPNPGKSFSARGFPRHCYLPDSEKGRKVLKLLLVAWDRRLIFAIGTSSTTGESDTVIWNEVHHKTEFGSNLTGHGYPDANYLDNVLAELAAQGISEDSTAQEKD | soluble
2 | MKQSKEEFIKSEGADFPGKTYVDCVLQHVFDFQRNYLLKDMFQVHKAHIVMLTEENLMKKEEAKFILHALKKVEEIPEEQLLYTEQHEDLFFLVEHLISQEAKSDFVSNMHIGRSRNDMGVTMYRMSLRRYVLRLMEHHLLLQESILQLAADHKETIMPAYTHTQPAQPTTFGHYTLAIYDTMQRDLERMKKTYKLLNQSPMGAAALSTTSFPIKRERVADLLGFTNVIENSYDAVAGADYLLEVSSLLMIMMTNTSRWIHDFLLLATKEYDGIAVARPYVQISSIMPQKRNPVSIEHARAITSSAPGEAFTVFQMIHNTPFGEIVDTEDDLQPYLYKGIEKAIRVFCILNAVIRTMKVEEDTLKRRSYKHAITITDFADVLTKNYGIPFRHAHHAASVIANMSLEQKKELHELCFKDVNIYLQEKFKIQLLEKEWEEIISPEAFIQKRNVYGGPSKKEMERMINNRKELFRKEEEVFEEEKQRILQAENDLNMLASNIIES | not soluble
3 | MSLVRQLIGRTLSGTVTMCAGPFRSVLNMLHRPQWETAMIAPLPAVDMRVICAGHVNWDVTLHVDHLPKPDGEGRITDRSQSSGGSASNAAVALAGLDADPLVLGSVGRDDHGTMARRELAATGVETLLIESDEATAVKYLIVDENGDVAVLGNDGANEAFNASDLPAETLAEADHLHLTGQNPTTAATLARDAAAADVPVSFDPGRRLPYRDYSSVLSHAEILFCNDREADHARDSGLFETVPTVVVKHGDCGATAHIGDQTVTNAGYPIESVDTAGAGDAFAAGYLLASAQETDPERALAVANACGALAAQSSGARTTLDWESVWELVDSGQEGHHHHHH | soluble
4 | AAKGNMQCNIFVPAGTSKGKTTQTRLYGANCIEVEGTREDVALAAIESSVTHGSHYVGHNWHPLFIEGVKSIAYEIWEQCGYKAPDNFVVPAGNGSLLAGAYIGFSELLKGGEISKLPRLFGIQSESIQPFVQTFNNKEINITSEDTIAEGIKIKRSSRMNEIVQFVKETNGNFISVNEQQIQSALKEMGAQGYFIEPTSATAFAGIAQLIKTQEIKPDELTVGVVTGNGLKATNSIEHLINDMRG | not soluble
5 | MLEDLRANSWSLRPCCMVLAYRIAHFCSVWRKKNVLNNLWAAPVLVLYRVITECLFGYEIQAAATIGRRFTIHHGYAVVINKHVVAGDDFTIRHGVTIGNRGADSLACPVIGNGVELGANVILLGDITIGNHVTIGAGSVVLDSIPDHALVVGEKARVKVST | not soluble
6 | MGSSHHHHHHSSGLVPRGSHMKVYYECAPCFLRQAREAIDLATDDEELKLRVMENILELLSERFRRGQVSNELGTRMHRLIKDMTGSEDPYLDEKRRCNEIALRFLPTVRDYLECHSDLESHVKVAITGNIIDFGALGLDFDHDRGIQESLRAPLTINHVPLLEDRLREASEVLYLLDNTGEILFDRPLIEKLAGYDVSVKVAVKGEPILNDACMEDALEAGLDEVAEIVTTGTDSVGIVYSDLSDEFRDMLDGTELVIAKGMGNYEGLTEISDGSRDIFCLLNAKCSAIARDLGVARGDNVAVKI | soluble
7 | MTTKKADYIWFNGEMVRWEDAKVHVMSHALHYGTSVFEGIRCYDSHKGPVVFRHREHMQRLHDSAKIYRFPVSQSIDELMEACRDVIRKNNLTSAYIRPLIFVGDVGMGVNPPAGYSTDVIIAAFPWGAYLGAEALEQGIDAMVSSWNRAAPNTIPTAAKAGGNYLSSLLVGSEARRHGYQEGIALDVNGYISEGAGENLFEVKDGVLFTPPFTSSALPGITRDAIIKLAKELGIEVREQVLSRESLYLADEVFMSGTAAEITPVRSVDGIQVGEGRCGPVTKRIQQAFFGLFTGETEDKWGWLDQVNQ | soluble
8 | MKKNDLSALQENCFCFCDEEISREAPFQVPIDFPEGFKVDTAEASAAVTWSTDNLSCISEPCLIQTGPEPEDIGVRYAVRVQGTITLLVSVSPVRNQYGQGDGAVSVIHTEEIDQVVYYAAQSGRCPDFSQITVEDLLIVPPFYGSPLTVAGTLVLPPSPDPQSYVFTANTGDSTVSVIDADLNTVVKTIPFSDVPTNLGVTFDKAFTYVLHGNTNLVSVIDNKTLTIINTITVGGGPRKIEFDPTDEFAYVMAAGSIYVINTASQSVIDVIPIPGALDFALDPNGQYVYTANGSSWSVDKYDVNTGQLVESIIDTFEFPSLITTPYAGNFAYVLNGELWPKGVTEISLSPLSRGGDFSRLFETLRTIVFSLDSTRAYFLEPYSEPFLINNLYVVNTARQRIIANVSLPGAFDLAVTPDKQYIYAAQPNDNAVTVYRTSDYTAVTVIPVGAGPSAIAMLEHHHHHH | not soluble
9 | MLTEQQRRELDWEKTDGLMPVIVQHAVSGEVLMLGYMNPEALDKTIESGKVTFFSRTKQRLWTKGETSGNFLNVVNIAPDCDNDTLLVLANPIGPTCHKGTSSCFGDTAHQWLFLYQLEQLLAERKSADPETSYTAKLYASGTKRIAQKVGEEGVETALAATVHDRFELTNEASDLMYHLLVLLQDQDLDLTTVIENLRKRHQ | not soluble
10 | MEFEGCSGFRQRLVLSTLSGKPVKIRNIRSKDDNPGLRDFEASFIRMLDKLTNGTRIEINQTGTVLFYQPGLLYGGSVEHECNVQRSVGYYLEALLMLVPFMKTPIKAVLKGITNHPTDPSVDLLKVTAVPLMKRFGINGDGLEIKVVKRGMAPGGGGEVHFSCPVSRSMKPVQLTEAGKIKRIRGTAFSVRVSPQMANRIVDSARSILNKFIPDIYIYTDHMKGPNSGKSPGFGLGLVAETLNGVFLGAEVVSTPQGQGEMQLPEDLGRNCAKLLLEEIYRGGCVDSTNQSLALLYMTLGQQDVSKTLLGPLSPYTMDFLRHIRDFFQIMFKIETQKPSEDECKGGEKVLMTCVGAGYNNISKSIK | not soluble
11 | MGSDKIHHHHHHMNIIGFSKALFSTWIYYSPERILFDAGEGVSTTLGSKVYAFKYVFLTHGHVDHIAGLWGVVNIRNNGMGDREKPLDVFYPEGNRAVEEYTEFIKRANPDLRFSFNVHPLKEGERVFLRNAGGFKRYVQPFRTKHVSSEVSFGYHIFEVRRKLKKEFQGLDSKEISRLVKEKGRDFVTEEYHKKVLTISGDSLALDPEEIRGTELLIHECTFLDARDRRYKNHAAIDEVMESVKAAGVKKVILYHISTRYIRQLKSVIKKYREEMPDVEILYMDPRKVFEM | not soluble
12 | MSLHNRFSLAQTLVTTVEAESGTRAGGLTIATANAGYSGTGYITNMTSAADKLTIPVTVPSAGNYQLVIRYNGPYGPKDQDIYVNGVFVSSLHFPETTGYTDLTAGSLTLNAGANTIGIYKNWGYTDFDKISLFTVPLHDYSTVAPNLIDANATPEAKALYNYIKAGYGTRIISGQTSDYYNTVSPNAAKKPVIRAYDFQHYTVGYSYLWNNATASHTFGWEDDGTTQAAIDWYNSTCQKGMVAFHWHWHSPSGGQAGTNTFYTNSTAFDVTKAVTQGTPEYTAVIRDIDSIATQLKRLQAAGVPVLWRPLHEAGGAWFWWGAKGPAAALALYDMVYNRIVNYHNIHNLIWQWSTPEANWYPGNSKVDMLGYDSYPGAYNYGTQKLIFDQLYTIVNGQKILAMTENGPIPDPDLCFSSDAKWAYVMSWSDLVTQQNSSAQLNLVYNHAKVLTLDEVTTATNTAQLTAEGHHHHHH | soluble
13 | MLEPCTKRSELLYRMHLLSKEISHVFEQQTNMSFTKVEILFHIKQTPGQSQNRLKEKLYIDSASITRHLKRMEEQGLIVRKKQDENKRYTYLFLTPAGEAELTSLLTEKEKFQTGALEGFSEDEVSALLKSVTKMMNNVEKLEEKLK | not soluble
14 | MKVYVGNLGTGAGKGELERAFSYYGPLRTVWIARNPPGFAFVEFEDPRDAEDAVRGLDGKVICGSRVRVELSTGMPRRSRFDRPPARRKLLEVLFNGPLEH | soluble
15 | MSLILKRVYIDFEMNMPNSKSKRAVFNSDIIAIGAVMYDEKTKNIDKFKSLIRPVSNEELYPHIQELTHISSEELKSAPSYEEVMRKFKKWLGIFSDIKGIYTFGNLDLTCFNNTDMRSAKKNNHPRFVNNIRDLFVDIKEKYINCGMRCMNYISLKNLLEFVNLEFSGDAHDPLNDAYNLFILDEAITNNVDIQNLLIIRDIIRPPFNDINSNLDNCFNKFKESLYKKEGNYNIVDFSVEIIKTVRMYLLTIIDVNIQNLEIMKDISKKMDTIDKLKDIEEGYFYLLEDVYFDMKDVLEDLMLYRMNEDEYKYEIKNIIKMFDEDLDNEKIYINKCNNLNVVNKEGHHHHHH | not soluble
16 | MGSDKIHHHHHHSDEEDGGSGGNLIYGGVSVSQEVLAHKPMLEKYAREYGIEEYLNVLLAIIQVESGGTLEDVMQSSESLGLPPNSLSTEESIKQGCKYFSELLAAAETKGCDLNSVIQSYNYGGGFLDYVAGHGKKYTFELAESFARDKSGGKKVTYTNPVAVEKNGGWRYSYGNMFYVLLVSQYLTVAQFDDETVQAIMEEALKYEGWTYVYGGDSPSTSFDCSGLVQWCYGKAGIALPRTAQEQYNVTQHIPLSEAKAGDLVFFHSTYNAGTYITHVGLYVGNNRMYHAGNPIGYADLTGSYWQQHLAGAGRIKQ | not soluble
17 | MSEDLNAGPKVNREFKNSVFTLLFNEVEAIRDIAGAVGAMLGKEINPDTPIKKTTLQNALLGGKLNDLSFVLDDKLIVLIEHQSTINKNMPLRMLHYISEIYNRLYDKKDLYKREKISIPKPVFIVLYNGEEDIKDFEEYLLSDLFKDFDISKEPPCLELRVQVRNINKGHSAEIVKQSPLLRDYVAFVEEVREANREEGASPELAMEKAVENCIKKGILTIFLTRHKEEVIKMLVAEWDYELDLEVAKEEAHEKGLSQGRDEERRKNIKDLYRIGVGIETIAKAFDLSERQVKDILGL | not soluble
18 | MGHHHHHHSHMDWTLAMAQESGVWSEAGQLALHSYLEGLHTLASCAPAPSLSAPRLKSCIQCVESQLLVVIMSVCMLVCQLRNVCVCVHAHACMYLFPVPSGSGCHFRLSALSPATSVPQPEREMRCSWTPHCIWAAGPELV | not soluble
19 | MSVEFQFQALVEDTPNEKWKAIFQQLWPGYRAWFLRSGVTGRPTYLECRQALRTYMPELVPLWEQLIELTGGGDVESRFLSLWCPPPYIAGCSQGVWFDPKGQEEPILLRNYDFAPVLLEGNLLNTRWLDQRVIAMSDCLWGALDGVNEAGLSASLSFGGRTVTGTGFGIPLVLRYILELAHTTQDAVNILKRIPVHMTYSVTLLDRKGEWNTVFVSPDRQPEVVKRHAVTNYQNAIEWPQHATATHSAERLTFLEQVLHHATNSHEVLQGLLTKPLYQDAWLRGYGTLYSAIYRPLSQKVEICWPHDYSQQSFEHFTEEQKLILLSVELEHHHHHH | not soluble
20 | MSLRNMSIINSTPVRVIAIVGCDGSGKSTLTASLVNELAARMPTEHIYLGQSSGRIGEWISQLPVIGAPFGRYLRSKAAHVHEKPSTPPGNITALVIYLLSCWRAYKFRKMLCKSQQGFLLITDRYPQVEVPGFRFDGPQLAKTTGGNGWIKMLRQRELKLYQWMASYLPVLLIRLGIDEQTAFARKPDHQLAALQEKIAVTPQLTFNGAKILELDGRHPADEILQASLRAIHAALSEGHHHHHH | soluble
